Assay results published in patent publication US20160083481A1 (INSERM INSTITUT NATIONAL DE LA SANT ET DE LA RECHERCHE M …, published 2016).

Experiments:
[1] = biological target: T1, Purified glycophorin A (human, from red cell membranes) (human, UniProt P02724 20-150); test: SPR, Biacore X100, purified GPA amine-coupled on a CM5 chip (400 RU), IH4 as analyte, 1:1 Langmuir fit
T1 construct: mature; also called GPA; Human Glycophorin A
T1 sequence (looked up): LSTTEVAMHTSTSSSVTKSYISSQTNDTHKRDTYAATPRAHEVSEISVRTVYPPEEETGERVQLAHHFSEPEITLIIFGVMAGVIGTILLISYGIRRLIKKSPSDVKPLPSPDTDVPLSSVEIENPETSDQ
Protocol: SPR recordings obtained in a Biacore X100 apparatus.
SPR analysis of VHH interactions used a Biacore X100 apparatus (GE Healthcare). Purified GPA was immobilized on a CM5 chip in the Fc2 channel to a level of 400 Resonance units using amine coupling chemistry as recommended by the manufacturer. Reference channel Fc1 was simply activated and deactivated through ethanolamine. 6 different concentrations of analyte were injected onto the chip for 180 seconds, and dissociation let to proceed for 600 seconds. Data were analyzed using BIA Evaluation software associated to the apparatus.
Data can be easily fitted using 1:1 Langmuir fit.

[2] = biological target: T2, Glycophorin B in the crude glycophorins mixture (human, UniProt P06028 20-91); test: western blot of the crude glycophorins mixture, PVDF, with and without NaOH beta-elimination
T2 construct: mature; also called GPB

B1: IH4 (VHH)
VHH: QVQLQESGGGSVQAGGSLRLSCVASGYTDSTYCVGWFRQAPGKEREGVARINTISGRPWYADSVKGRFTISQDNSKNTVFLQMNSLKPEDTAIYYCTLTTANSRGFCSGGYNYKGQGQVTVS
notes: also called VHH IH4; autonomous IH4; not shown: A polyhistidine tail is also present: C-terminal after the HA tag (pHEN6cPm)
Kd [1]: 33.7 nM
koff [1]: 0.019 s⁻¹
kon [1]: 573000 M⁻¹ s⁻¹
binding result [2]: no binding
